Measured values: patent US20090285813A1 (MMRGLOBAL, published 2009)

What was measured:
human CD20 [1] = molecular target: T1, human CD20 (human, UniProt P11836 1-297); test: anti-CD20 cellular ELISA, supernatant; rank 2 of 29
T1 construct: whole, on cells; Target always presented on cells; also called CD20 antigen
T1 sequence (looked up): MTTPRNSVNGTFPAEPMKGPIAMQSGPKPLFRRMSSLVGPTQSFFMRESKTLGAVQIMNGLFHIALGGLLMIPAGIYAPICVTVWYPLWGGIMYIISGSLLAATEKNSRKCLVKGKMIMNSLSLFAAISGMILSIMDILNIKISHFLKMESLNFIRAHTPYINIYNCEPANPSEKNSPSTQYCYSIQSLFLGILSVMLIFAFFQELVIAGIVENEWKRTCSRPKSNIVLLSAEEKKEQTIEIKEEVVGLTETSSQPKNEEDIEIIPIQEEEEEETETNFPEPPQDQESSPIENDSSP

human CD20 [2] = molecular target: T1, human CD20; test: anti-CD20 cellular ELISA, supernatant; rank 6 of 29
human CD20 [3] = molecular target: T1, human CD20; test: anti-CD20 cellular ELISA, supernatant; rank 5 of 29
human CD20 [4] = molecular target: T1, human CD20; test: anti-CD20 cellular ELISA, supernatant; rank 4 of 29
human CD20 [5] = molecular target: T1, human CD20; test: anti-CD20 cellular ELISA, supernatant; rank 8 of 29
human CD20 [6] = molecular target: T1, human CD20; test: anti-CD20 cellular ELISA, supernatant; rank 1 of 29
human CD20 [7] = molecular target: T1, human CD20; test: anti-CD20 cellular ELISA, supernatant; rank 7 of 29
human CD20 [8] = molecular target: T1, human CD20; test: anti-CD20 cellular ELISA, supernatant; rank 3 of 29

B1: anti-CD20 HuFR variant 2 (light chain BD22085, heavy chain BD20335) (antibody, human IgG1, kappa, V domains shown)
VH: QVQLVQSGAEVKKPGASVKVSCKASGYTFTSYNMHWVRQAPGKGLEWMGAIYPGNGDTSYNQKFKGRFTISRDNAKNSLYLQMNSLRAEDTAVYYCARSHYGSNYVDYFDYWGQGTLVTVSS
VL: DIVMTQSPDSLAVSLGERATINCRASSSLSFMHWYQQKPGQAPRLLIYATSNLASGVPSRFSGSGSGTDFTLTISSLQPEDFATYYCHQWSSNPLTFGQGTKVEIKR
notes: Full-length IgG, unpurified HEK-293 supernatant; also called LC & HC combination 2
- binding result (human CD20 [1]): binds

B2: anti-CD20 HuFR variant 6 (light chain BD22089, heavy chain BD20335) (antibody, human IgG1, kappa, V domains shown)
VH: QVQLVQSGAEVKKPGASVKVSCKASGYTFTSYNMHWVRQAPGKGLEWMGAIYPGNGDTSYNQKFKGRFTISRDNAKNSLYLQMNSLRAEDTAVYYCARSHYGSNYVDYFDYWGQGTLVTVSS
VL: EIVLTQSPATLSLSPGERATLSCRASSSLSFMHWYQQKPGQPPKLLIYATSNLASGVPSRFSGSGSGTDFTFTISSLQPEDIATYYCHQWSSNPLTFGQGTKVEIKR
notes: Full-length IgG, unpurified HEK-293 supernatant; also called LC & HC combination 6
- binding result (human CD20 [2]): binds

B3: anti-CD20 HuFR variant 5 (light chain BD22087, heavy chain BD20335) (antibody, human IgG1, kappa, V domains shown)
VH: QVQLVQSGAEVKKPGASVKVSCKASGYTFTSYNMHWVRQAPGKGLEWMGAIYPGNGDTSYNQKFKGRFTISRDNAKNSLYLQMNSLRAEDTAVYYCARSHYGSNYVDYFDYWGQGTLVTVSS
VL: EIVLTQSPGTLSLSPGERATLSCRASSSLSFMHWYQQKPGKAPKLLIYATSNLASGVPSRFSGSGSGTEFTLTISSLQPDDFATYYCHQWSSNPLTFGQGTKVEIKR
notes: Full-length IgG, unpurified HEK-293 supernatant; also called LC & HC combination 5
- binding result (human CD20 [3]): binds

B4: anti-CD20 HuFR variant 4 (light chain BD22088, heavy chain BD20337) (antibody, human IgG1, kappa)
heavy: not shown
light: DIVMTQSPLSLPVTPGEPASISCRASSSLSFMHWYQQKPGQPPKLLIYATSNLASGVPSRFSGSGSGTDFTFTISSLQPEDIATYYCHQWSSNPLTFGQGTKVEIKRTVAAPSVFIFPPSDEQLKSGTASVVCLLNNFYPREAKVQWKVDNALQSGNSQESVTEQDSKDSTYSLSSTLTLSKADYEKHKVYACEVTHQGLSSPVTKSFNRGEC
notes: Full-length IgG, unpurified HEK-293 supernatant; also called LC & HC combination 4
- binding result (human CD20 [4]): binds

B5: anti-CD20 HuFR variant 8 (light chain BD22095, heavy chain BD20337) (antibody, human IgG1, kappa)
heavy: not shown
light: EIVMTQSPATLSVSPGERATLSCRASSSLSFMHWYQQKPGQPPKLLIYATSNLASGVPSRFSGSGSGTDFTFTISSLQPEDIATYYCHQWSSNPLTFGQGTKVEIKRTVAAPSVFIFPPSDEQLKSGTASVVCLLNNFYPREAKVQWKVDNALQSGNSQESVTEQDSKDSTYSLSSTLTLSKADYEKHKVYACEVTHQGLSSPVTKSFNRGEC
notes: Full-length IgG, unpurified HEK-293 supernatant; also called LC & HC combination 8
- binding result (human CD20 [5]): binds

B6: anti-CD20 HuFR variant 1 (light chain BD22084, heavy chain BD20332) (antibody, human IgG1, kappa, V domains shown)
VH: QVQLVQSGAEVKKPGASVKVSCKASGYTFTSYNMHWVRQAPGKGLEWVGAIYPGNGDTSYNQKFKGRVTISADKSISTAYLQWSSLKASDTAMYYCARSHYGSNYVDYFDYWGQGTLVTVSS
VL: DIVMTQSPLSLPVTPGEPASISCRASSSLSFMHWYQQKPGQPPKLLIYATSNLASGIPARFSGSGSGTDFTLTISSLEPEDFAVYYCHQWSSNPLTFGQGTKVEIKR
notes: Full-length IgG, unpurified HEK-293 supernatant; also called LC & HC combination 1
- binding result (human CD20 [6]): binds

B7: anti-CD20 HuFR variant 7 (light chain BD22090, heavy chain BD20337) (antibody, human IgG1, kappa, V domains shown)
VH: QVQLVQSGAEVKKPGASVKVSCKASGYTFTSYNMHWVRQAPGQGLEWMGAIYPGNGDTSYNQKFKGRVTISADKSISTAYLQWSSLKASDTAMYYCARSHYGSNYVDYFDYWGQGTLVTVSS
VL: DIVMTQSPLSLPVTPGEPASISCRASSSLSFMHWYLQKPGQSPQLLIYATSNLASGVPDRFSGSGSGTDFTLKISRVEAEDVGVYYCHQWSSNPLTFGQGTKVEIKR
notes: Full-length IgG, unpurified HEK-293 supernatant; also called LC & HC combination 7
- binding result (human CD20 [7]): binds

B8: anti-CD20 HuFR variant 3 (light chain BD22086, heavy chain BD20335) (antibody, human IgG1, kappa, V domains shown)
VH: QVQLVQSGAEVKKPGASVKVSCKASGYTFTSYNMHWVRQAPGKGLEWMGAIYPGNGDTSYNQKFKGRFTISRDNAKNSLYLQMNSLRAEDTAVYYCARSHYGSNYVDYFDYWGQGTLVTVSS
VL: DIVMTQSPLSLPVTPGEPASISCRASSSLSFMHWYQQKPGQAPRLLIYATSNLASGVPDRFSGSGSGTDFTLTISSLQAEDVAVYYCHQWSSNPLTFGQGTKVEIKR
notes: Full-length IgG, unpurified HEK-293 supernatant; also called LC & HC combination 3
- binding result (human CD20 [8]): binds
